US20190271705A1 (UNIVERSITY OF WESTERN ONTARIO, published 2019)

B1: T8V/S10A/K15L variant Fyn SH2 domain (designed binder)
chain: MKIEEHHHHHHSSGRENLYFQGGAAQPAAPVDSIQAEEWYFGKLGRKDAERQLLSFGNPRGTFLIRESETVKGAYALSIRDWDDMKGDHVKHYLIRKLDNGGYYITTRAQFETLQQLVQHYSERAAGLSSRLVVPSHKGAAA
B2: T8V/C10A/K15L variant Src SH2 domain expressed as a GFP-fusion protein in HEK 293 cells (designed binder)
chain: DSIQAEEWYFGKITRRESERLLLNAENPRGTFLVRESETVKGAYALSVSDFDNAKGLNVKHYLIRKLDSGGFYITSRTQFNSLQQLVAYYSKHADGLCHRLTTVCPTSK
notes: domain: SH2 domain; also called TrM Src SH2 domain; 8V/10A/15L-substituted Src SH2 domain; not shown: GFP encoded by the pEGFPC2 vector (Clontech)
B3: A8V/S10A/K15L variant Grb2 SH2 domain expressed as a GFP-fusion protein in HEK 293 cells (designed binder)
chain: MKPHPWFFGKIPRAKAEEMLSKQRHDGAFLIRESESVPGDFALSVKFGNDVQHFLVLRDGAGKYFLWVVKFNSLNELVDYHRSTSVSRNQQIFLRDIEQVPQQP
notes: also called TrM Grb2 SH2 domain; 8V/10A/15L-substituted Grb2 SH2 domain; not shown: GFP encoded by the pEGFPC2 vector (Clontech)
B4: wild-type Fyn SH2 domain expressed as a GFP-fusion protein in HEK 293 cells (other, human, UniProt P06241 139-249, looked up)
chain: APVDSIQAEEWYFGKLGRKDAERQLLSFGNPRGTFLIRESETTKGAYSLSIRDWDDMKGDHVKHYKIRKLDNGGYYITTRAQFETLQQLVQHYSERAAGLCCRLVVPCHKG
notes: domain: SH2 domain; also called Wt Fyn SH2 domain; Wt; not shown: GFP encoded by the pEGFPC2 vector (Clontech)

Assays:
[1] = molecular target: T1, EGFR-pY978 peptide; experiment: fluorescence polarization in solution; reference wild-type Fyn SH2 domain
T1 construct: Synthetic pTyr-containing peptide
Procedure: Measurements of fluorescence polarization were conducted by titrating the SH2 domain concentration, while keeping the peptide concentration constant. Kd values were calculated with the GraphPad Prism software, by assuming the one-site binding model (GraphPad Software).

[2] = molecular target: T2, EGF receptor (EGFR) (UniProt P00533 25-1210, tyrosine-phosphorylated in the C-terminal tail (cells treated with EGF and pervanadate); sites not stated); experiment: co-immunoprecipitation from HEK 293 cells
T2 construct: Endogenous receptor of HEK 293 cells; detected with an anti-EGFR rabbit polyclonal antibody; also called epidermal growth factor receptor

[3] = molecular target: T2, EGF receptor (EGFR); experiment: co-immunoprecipitation from HEK 293 cells, anti-GFP and anti-EGFR antibodies
Procedure: HEK 293 cells were lysed with cold lysis buffer (1% NP-40, 50 mM Tris-HCl pH 7.4, 150 mM NaCl, 2 mM EDTA, 50 mM NaF, 10% Glycerol and protease inhibitor cocktail diluted at 1:1000). After centrifugation at 13,000*g for 15 min, the supernatants were collected. After clearance of the lysate with appropriate pre-immune serum and protein G (Roche), immnuoprecipitation (IP) and immunoblotting (IB) were performed.

Row | Binder | binding result [2] | also measured
1 | B1 | – | fold affinity increase (Kd[wild-type] divided by Kd[variant]) [1]: > 1000 fold
2 | B2 | binds | –
3 | B3 | binds | –
4 | B4 | – | binding result [3]: no binding
